Data as given in paper PMC8213806 (Nature Communications, 2021).

How the values were obtained:
Experiment in all cases: pull-down
Conditions in all cases: both partners purified
[1] = target: TcdB1 holotoxin L563G/I566G (Clostridioides difficile (VPI10463 …, UniProt P18177 1-2366, L563G | I566G))
[2] = target: TcdB1 holotoxin F1823G/I1825G/M1831G (Clostridioides difficile (VPI10463 …, UniProt P18177 1-2366, F1823G | I1825G | M1831G))
TcdB1 holotoxin D1812G = TcdB1 holotoxin D1812G (Clostridioides difficile (VPI10463 …, UniProt P18177 1-2366, D1812G))
TcdB1 holotoxin N1758A = TcdB1 holotoxin N1758A (Clostridioides difficile (VPI10463 …, UniProt P18177 1-2366, N1758A))
TcdB1 holotoxin S567E = TcdB1 holotoxin S567E (Clostridioides difficile (VPI10463 …, UniProt P18177 1-2366, S567E))
TcdB1 holotoxin N1850A = TcdB1 holotoxin N1850A (Clostridioides difficile (VPI10463 …, UniProt P18177 1-2366, N1850A))
TcdB1 holotoxin Y603G = TcdB1 holotoxin Y603G (Clostridioides difficile (VPI10463 …, UniProt P18177 1-2366, Y603G))
TcdB1 holotoxin Y621A = TcdB1 holotoxin Y621A (Clostridioides difficile (VPI10463 …, UniProt P18177 1-2366, Y621A))
[3] = target: TcdB1 holotoxin V1816G/L1818G (Clostridioides difficile (VPI10463 …, UniProt P18177 1-2366, V1816G | L1818G))

Measured: binding result

B1: Repeat1-Fc (CSPG4 Repeat1, residues 410–551, fused to the N-terminus of human IgG1 Fc) (Fc fusion)
chain: ELPEPCVPEPGLPPVFANFTQLLTISPLVVAEGGTAWLEWRHVQPTLDLMEAELRKSQVLFSVTRGARHGELELDIPGAQARKMFTLLDVVNRKARFIHDGSEDTSDQLVLEVSVTARVPMPSCLRRGQTYLLPIQVNPVND
notes: also called CSPG4 decoy; source: FreeStyle HEK 293 cells, secreted, purified (Ni-NTA); not shown: Fc (human IgG1), C-terminal, kept
binds: all assays above
